Test results as given in patent publication US20250188166A1.

What was measured:
[1] = target: IL-18 polypeptide C162 (human) (UniProt Q14116); test: cell-based or functional assay
[2] = target: IL-18 polypeptide SEQ ID NO: 47 (C38S, C68S, C76S, C127S) (human) (UniProt Q14116); test: cell-based or functional assay
[3] = target: IL-18 polypeptide C168 (human) (UniProt Q14116); test: cell-based or functional assay
[4] = target: IL-18 polypeptide C157 (human) (UniProt Q14116); test: cell-based or functional assay
[5] = target: IL-18 polypeptide C145 (human) (UniProt Q14116); test: cell-based or functional assay
[6] = target: IL-18 polypeptide C155 (human) (UniProt Q14116); test: cell-based or functional assay
[7] = target: IL-18 polypeptide SEQ ID NO: 5 (E6K, V11I, C38A, K53A, T63A, C68A, C76A, C127A, M86C) (human) (UniProt Q14116); test: cell-based or functional assay
[8] = target: IL-18 polypeptide C151 (human) (UniProt Q14116); test: cell-based or functional assay
[9] = target: IL-18 polypeptide SEQ ID NO: 46 (E06K, K53A, S55A, M51G) (human) (UniProt Q14116); test: cell-based or functional assay
[10] = target: IL-18 polypeptide SEQ ID NO: 55 (K53A, T63A, C38S, C68S, C76S, C127S, K70C) (human) (UniProt Q14116); test: cell-based or functional assay
[11] = target: native IL-18 wild-type (SEQ ID NO: 1) (human) (UniProt Q14116); test: cell-based or functional assay
[12] = target: IL-18 polypeptide C150 (human) (UniProt Q14116); test: cell-based or functional assay
[13] = target: IL-18 polypeptide SEQ ID NO: 48 (C38S, C68S, C76S, C127S, K70C) (human) (UniProt Q14116); test: cell-based or functional assay
[14] = target: IL-18 polypeptide SEQ ID NO: 35 (Y01G, F02A, E06K, M51G, K53A, D54A, S55A, T63A) (human) (UniProt Q14116); test: cell-based or functional assay
[15] = target: IL-18 polypeptide C149 (human) (UniProt Q14116); test: cell-based or functional assay
[16] = target: IL-18 polypeptide SEQ ID NO: 42 (E06K, K53A, S55A, T63A) (human) (UniProt Q14116); test: cell-based or functional assay
[17] = target: IL-18 polypeptide SEQ ID NO: 53 (K53A, T63A) (human) (UniProt Q14116); test: cell-based or functional assay
[18] = target: IL-18 polypeptide C163 (human) (UniProt Q14116); test: cell-based or functional assay
[19] = target: IL-18 polypeptide C160 (human) (UniProt Q14116); test: cell-based or functional assay
[20] = target: IL-18 polypeptide SEQ ID NO: 34 (E06K, K53A, S55A) (human) (UniProt Q14116); test: cell-based or functional assay
[21] = target: IL-18 polypeptide SEQ ID NO: 40 (E06K, S55A) (human) (UniProt Q14116); test: cell-based or functional assay
[22] = target: IL-18 polypeptide C143 (human) (UniProt Q14116); test: cell-based or functional assay
[23] = target: IL-18 polypeptide C167 (human) (UniProt Q14116); test: cell-based or functional assay
[24] = target: IL-18 polypeptide C146 (SEQ ID NO: 68) (human) (UniProt Q14116); test: cell-based or functional assay
[25] = target: IL-18 polypeptide C148 (human) (UniProt Q14116); test: cell-based or functional assay
[26] = target: IL-18 polypeptide SEQ ID NO: 6 (E6K, V11I, C38A, K53A, T63A, C68A, C76A, C127A, D98C) (human) (UniProt Q14116); test: cell-based or functional assay
[27] = target: IL-18 polypeptide C161 (human) (UniProt Q14116); test: cell-based or functional assay
[28] = target: IL-18 polypeptide SEQ ID NO: 59 (E6K, C38A, K53A) (human) (UniProt Q14116); test: cell-based or functional assay
[29] = target: IL-18 polypeptide C144 (human) (UniProt Q14116); test: cell-based or functional assay
[30] = target: IL-18 polypeptide SEQ ID NO: 4 (E6K, C38A, K53A, C68A, M86C) (human) (UniProt Q14116); test: cell-based or functional assay
[31] = target: IL-18 polypeptide C147 (human) (UniProt Q14116); test: cell-based or functional assay
[32] = target: IL-18 polypeptide SEQ ID NO: 36 (K53A) (human) (UniProt Q14116); test: cell-based or functional assay
[33] = target: IL-18 polypeptide C165 (human) (UniProt Q14116); test: cell-based or functional assay
[34] = target: IL-18 polypeptide C153 (human) (UniProt Q14116); test: cell-based or functional assay
[35] = target: IL-18 polypeptide C158 (human) (UniProt Q14116); test: cell-based or functional assay
[36] = target: IL-18 polypeptide SEQ ID NO: 41 (K53A, S55A) (human) (UniProt Q14116); test: cell-based or functional assay
[37] = target: IL-18 polypeptide SEQ ID NO: 52 (E06K, T63A) (human) (UniProt Q14116); test: cell-based or functional assay
[38] = target: IL-18 polypeptide SEQ ID NO: 62 (E6K, C38A, K53A, C127A) (human) (UniProt Q14116); test: cell-based or functional assay
[39] = target: IL-18 polypeptide C166 (human) (UniProt Q14116); test: cell-based or functional assay
[40] = target: IL-18 polypeptide SEQ ID NO: 39 (E06K, K53A) (human) (UniProt Q14116); test: cell-based or functional assay
[41] = target: IL-18 polypeptide SEQ ID NO: 60 (E6K, C38Q, K53A) (human) (UniProt Q14116); test: cell-based or functional assay
[42] = target: IL-18 polypeptide SEQ ID NO: 50 (E06K, K53A, T63A) (human) (UniProt Q14116); test: cell-based or functional assay
[43] = target: IL-18 polypeptide C159 (human) (UniProt Q14116); test: cell-based or functional assay
[44] = target: IL-18 polypeptide SEQ ID NO: 54 (E06K, K53A, C38S, C68S, C76S, C127S, K70C) (human) (UniProt Q14116); test: cell-based or functional assay
[45] = target: IL-18 polypeptide C154 (human) (UniProt Q14116); test: cell-based or functional assay
[46] = target: IL-18 polypeptide SEQ ID NO: 57 (E6K, C38S, K53A) (human) (UniProt Q14116); test: cell-based or functional assay
[47] = target: IL-18 polypeptide SEQ ID NO: 51 (T63A) (human) (UniProt Q14116); test: cell-based or functional assay
[48] = target: IL-18 polypeptide SEQ ID NO: 37 (S55A) (human) (UniProt Q14116); test: cell-based or functional assay
[49] = target: IL-18 polypeptide C164 (human) (UniProt Q14116); test: cell-based or functional assay
[50] = target: IL-18 polypeptide SEQ ID NO: 38 (E06K) (human) (UniProt Q14116); test: cell-based or functional assay
[51] = target: IL-18 polypeptide SEQ ID NO: 9 (E6K, C38A, K53A, C68A, D98C) (human) (UniProt Q14116); test: cell-based or functional assay
[52] = target: IL-18 polypeptide C156 (human) (UniProt Q14116); test: cell-based or functional assay
[53] = target: IL-18 polypeptide SEQ ID NO: 43 (E06K, K53A, S55A, Y01G) (human) (UniProt Q14116); test: cell-based or functional assay
[54] = target: IL-18 polypeptide C152 (human) (UniProt Q14116); test: cell-based or functional assay
[55] = target: Composition C (Trastuzumab/Herceptin conjugated to IL-18 polypeptide SEQ ID NO: 30) (human)
[56] = target: Composition D (LZM-009 conjugated to IL-18 polypeptide SEQ ID NO: 31) (human) (UniProt Q14116)
[57] = target: native IL-18 wild-type (SEQ ID NO: 1) (human) (UniProt Q14116)
[58] = target: IL-18 polypeptide SEQ ID NO: 31 (C38A, C76A, C127A) (human) (UniProt Q14116)
[59] = target: Composition A (LZM-009 conjugated to IL-18 polypeptide SEQ ID NO: 30) (human) (UniProt Q14116)

- IC50 of IL-18BP on IFNγ secretion by NK92 cells [1]: 7.29 nM
- IC50 of IL-18BP on IFNγ secretion by NK92 cells [2]: 0.444 nM
- IC50 of IL-18BP on IFNγ secretion by NK92 cells [3]: 0.176 nM
- IC50 of IL-18BP on IFNγ secretion by NK92 cells [4]: 6.08 nM
- IC50 of IL-18BP on IFNγ secretion by NK92 cells [5]: 10.2 nM
- IC50 of IL-18BP on IFNγ secretion by NK92 cells [6]: 3.23 nM
- IC50 of IL-18BP on IFNγ secretion by NK92 cells [7]: 62.4 nM
- IC50 of IL-18BP on IFNγ secretion by NK92 cells [8]: 3.62 nM
- IC50 of IL-18BP on IFNγ secretion by NK92 cells [9]: 0.189 nM
- IC50 of IL-18BP on IFNγ secretion by NK92 cells [10]: > 1000 nM
- IC50 of IL-18BP on IFNγ secretion by NK92 cells [11]: 1.47 nM
- IC50 of IL-18BP on IFNγ secretion by NK92 cells [12]: 21.3 nM
- IC50 of IL-18BP on IFNγ secretion by NK92 cells [13]: 0.114 nM
- IC50 of IL-18BP on IFNγ secretion by NK92 cells [14]: > 55 nM
- IC50 of IL-18BP on IFNγ secretion by NK92 cells [15]: 1.17 nM
- IC50 of IL-18BP on IFNγ secretion by NK92 cells [16]: 1060 nM
- IC50 of IL-18BP on IFNγ secretion by NK92 cells [17]: 18.2 nM
- IC50 of IL-18BP on IFNγ secretion by NK92 cells [18]: 0.823 nM
- IC50 of IL-18BP on IFNγ secretion by NK92 cells [19]: 3.18 nM
- IC50 of IL-18BP on IFNγ secretion by NK92 cells [20]: 229 nM
- IC50 of IL-18BP on IFNγ secretion by NK92 cells [21]: 15 nM
- IC50 of IL-18BP on IFNγ secretion by NK92 cells [22]: 1.62 nM
- IC50 of IL-18BP on IFNγ secretion by NK92 cells [23]: 0.809 nM
- IC50 of IL-18BP on IFNγ secretion by NK92 cells [24]: 733 nM
- IC50 of IL-18BP on IFNγ secretion by NK92 cells [25]: 5.05 nM
- IC50 of IL-18BP on IFNγ secretion by NK92 cells [26]: 5.85 nM
- IC50 of IL-18BP on IFNγ secretion by NK92 cells [27]: 1.07 nM
- IC50 of IL-18BP on IFNγ secretion by NK92 cells [28]: 654 nM
- IC50 of IL-18BP on IFNγ secretion by NK92 cells [29]: 7.52 nM
- IC50 of IL-18BP on IFNγ secretion by NK92 cells [30]: 396 nM
- IC50 of IL-18BP on IFNγ secretion by NK92 cells [31]: 47.6 nM
- IC50 of IL-18BP on IFNγ secretion by NK92 cells [32]: 27.3 nM
- IC50 of IL-18BP on IFNγ secretion by NK92 cells [33]: 0.885 nM
- IC50 of IL-18BP on IFNγ secretion by NK92 cells [34]: 2.22 nM
- IC50 of IL-18BP on IFNγ secretion by NK92 cells [35]: 3.98 nM
- IC50 of IL-18BP on IFNγ secretion by NK92 cells [36]: 37.3 nM
- IC50 of IL-18BP on IFNγ secretion by NK92 cells [37]: 47.1 nM
- IC50 of IL-18BP on IFNγ secretion by NK92 cells [38]: 284 nM
- IC50 of IL-18BP on IFNγ secretion by NK92 cells [39]: 0.44 nM
- IC50 of IL-18BP on IFNγ secretion by NK92 cells [40]: > 703 nM
- IC50 of IL-18BP on IFNγ secretion by NK92 cells [41]: 780 nM
- IC50 of IL-18BP on IFNγ secretion by NK92 cells [42]: > 1000 nM
- IC50 of IL-18BP on IFNγ secretion by NK92 cells [43]: 1.81 nM
- IC50 of IL-18BP on IFNγ secretion by NK92 cells [44]: 23.5 nM
- IC50 of IL-18BP on IFNγ secretion by NK92 cells [45]: 3.71 nM
- IC50 of IL-18BP on IFNγ secretion by NK92 cells [46]: 146 nM
- IC50 of IL-18BP on IFNγ secretion by NK92 cells [47]: 0.239 nM
- IC50 of IL-18BP on IFNγ secretion by NK92 cells [48]: 4.46 nM
- IC50 of IL-18BP on IFNγ secretion by NK92 cells [49]: 0.456 nM
- IC50 of IL-18BP on IFNγ secretion by NK92 cells [50]: 7.79 nM
- IC50 of IL-18BP on IFNγ secretion by NK92 cells [51]: 961 nM
- IC50 of IL-18BP on IFNγ secretion by NK92 cells [52]: 0.681 nM
- IC50 of IL-18BP on IFNγ secretion by NK92 cells [53]: 27.8 nM
- IC50 of IL-18BP on IFNγ secretion by NK92 cells [54]: 7.85 nM
- IC50 (read off the curve) [55]: 10 nM
- IC50 (read off the curve) [56]: 0.1 nM
- IC50 (read off the curve) [57]: 1 nM
- IC50 (read off the curve) [58]: 0.3 nM
- IC50 (read off the curve) [59]: 8 nM
Substance: Fc fused human IL-18 binding protein isoform a (from UniProt O95998 31-194) (Fc fusion)
